Earlier results as cited in PMC3006222.

Molecular target: Heat-labile enterotoxin B subunit (LTB) (UniProt P0CK94)
Experiment: not stated in this article (acid-induced pentamer disassembly, earlier work)
Conditions: pH 1.9

UniProt P0CK94, sequence (P0CK94 whole entry): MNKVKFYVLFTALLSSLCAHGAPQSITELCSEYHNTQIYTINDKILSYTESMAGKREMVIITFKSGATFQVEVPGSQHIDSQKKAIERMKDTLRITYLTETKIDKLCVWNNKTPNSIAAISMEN

## Heat-labile enterotoxin B subunit (LTB)
  threshold pH for acid disassembly of the pentamer: 1.9 pH
